Key:
[1] = target: T1, pY1068 peptide (SEQ ID NO: 7) (Homo sapiens, UniProt P00533); assay: 96-well screen for phosphopeptide binding proteins, 7-spot IPR plates; settings: two steps of normalization; top 9 clones
T1 construct: phosphotyrosine at Tyr1068 (chemical modification); purchased New England Peptide, Fitchburg Mass; host or cells: chemical synthesis
Description: A screen was conducted using 7-spot IPR plates. The 7 spot NPT IPR plates are described in more detail in copending Provisional Application No. 60/301,932 (entitled “Assay Plates, Reader Systems and Methods for Luminescence Test Measurements”, filed on Jun. 29, 2001, hereby incorporated by reference) and particularly in the description of Plate Type D in Example 6.1 (NPT IPR plate) and U.S. application Ser. Nos. 10/185,274 and 10/185,363, filed Jun. 28, 2002, each hereby incorporated by reference. These plates consist of a 96 wells with 7 zones (spots) for the immobilization of proteins or other reagents. Each spot was coated with BSA conjugated to either a single phosphopeptide or multiple phosphopeptides.
The plates were prepared essentially as described in example 12. The seven spots supported, respectively, the following BSA conjugates IkB, pY992, pY1068, pY1148, Myc, “A”, and “6-P”. “A” refers to a conjugate of BSA with multiple peptides: IkB, pY1148, Myc which were then coupled to BSA. “6-P” refers to a conjugate of BSA with the following multiple peptides: IkB, pY1148, pY992, pY1068, Smad3C.
For the assay, 4 ul from TnT reaction product described above were added to the coated plate containing 50 μl of binding buffer supplemented with 50 ng/well Ru-Streptavidin. The binding reaction was allowed to proceed at room temperature for 1 hour with constant shaking. […] The ECL signals were measured using an imaging plate reader (IPR). The raw data from the IPR reader was then normalized using two steps of normalization. The first round was based on the 50 lowest values for a given specific spot.

[2] = system: pEY; assay: In vitro kinase library screen: activity towards pEY; assay type: biochemical; settings: 5 ul of expressed protein
Procedure, shortened: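 Kinases made by in vitro transcription/translation, immobilised on streptavidin/avidin plates and washed with Tris/Triton and high-salt buffers. Incubated overnight at room temperature with 5 nM pEY, 100 µM ATP, Mg2+/Mn2+ and vanadate at pH 7.4. Phospho-pEY captured with biotinylated PY20 and detected by Sulfo-TAG anti-phosphotyrosine ECL.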

[3] = system: autophosphorylation (phosphotyrosine); assay: In vitro kinase library screen: autophosphorylation; assay type: biochemical
Procedure, shortened: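 Biotinylated SYK and EphA7 from in vitro transcription/translation, immobilized on streptavidin/avidin plates; autophosphorylation overnight at room temperature with 5 mM MgCl2, 5 mM MnCl2, 100 μM ATP, pH 7.4. Phosphotyrosine detected by Sulfo-TAG anti-phosphotyrosine (45 min) and ECL read-out.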

[4] = system: phospho-pEY; assay: Protein tyrosine phosphatase activity assay with phospho-pEY substrate; assay type: biochemical; settings: 5 nM phospho-pEY, 45 min
Description: Several proteins were produced in an in vitro transcription and translation reaction using 1–150 ng of plasmid DNA including: Mock Luciferase (Promega); protein tyrosine phosphatase; non-receptor type 2 (PTP-N2, IMAGE ID# 3872164, Incyte Genomics, CA); and fer (fms/fps related) protein kinase, testis specific 2 clone (Fert2, IMAGE ID# 4485050, Incyte Genomics, CA). The proteins were produced and immobilized on SA coated NPT-IPR plates, as described in Example 7. […]
A tyrosine phosphate substrate was prepared by enzymatically phosphorylating poly(Glu, Tyr). […] The phosphorylation in the product was determined by transferring serially diluted reaction mixture to a streptavidin-coated NPT IPR plate and assaying for phosphorylated-poly(Glu, Tyr) as described in previous examples (see, e.g., Example 7).
The phosphorylated poly(Glu, Tyr) was used as a substrate to measure the phosphatase activity of the purified and immobilized PTP-N2. […] Following this incubation 45 μl of this mixture was transferred to a streptavidin-coated NPT IPR plate and the solution analyzed for phospho-poly(Glu, Tyr) content as described above.

| Molecule | normalized ECL signal, pY1068 spot [1] | HTS signal [2] | ECL signal [3] | ECL signal [4] |
| --- | --- | --- | --- | --- |
| 3919253: IMAGE clone protein: BMX non-receptor tyrosine kinase (protein) MDTKSILEELLLKRSQQKKKMSPNNYKERLFVLTKTNLSYYEYDKMKRGSRKGSIEIKKIRCVEKVNLEEQTPVERQYPFQIVYKDGLLYVYASNEESRSQWLKALQKEIRGNPHLLVKYHSGFFVDGKFLCCQQSCKAAPGCTLWEAYANLHTAVNEEKHRVPTFPDRVLKIPRAVPVLKMDAPSSSTTLAQYDNESKKNYGSQPPSSSTSLAQYDSNSKKIYGSQPNFNMQYIPREDFPDWWQVRKLKSSSSSEDVASSNQKERNVNHTTSKISWEFPESSSSEEEENLDDYDWFAGNISRSQSEQLLRQKGKEGAFMVRNSSQVGMYTVSLFSKAVNDKKGTVKHYHVHTNAENKLYLAENYCFDSIPKLIHYHQHNSAGMITRLRHPVSTKANKVPDSVSLGNGIWELKREEITLLKELGSGQFGVVQLGKWKGQYDVAVKMIKEGSMSEDEFFQEAQTMMKLSHPKLVKFYGVCSKEYPIYIVTEYISNGCLLNYLRSHGKGLEPSQLLEMCYDVCEGMAFLESHQFIHRDLAARNCLVDRDLCVKVSDFGMTRYVLDDQYVSSVGTKFPVKWSAPEVFHYFKYSSKSDVWAFGILMWEVFSLGKQPYDLYDNSQVVLKVSQGHRLYRPHLASDTIYQIMYSCWHELPEKRPTFQQLLSSIEPLREKDKH | 3 | 523,662 | 443,933 | – |
| PTP-N2: protein tyrosine phosphatase, non-receptor type 2, IMAGE ID# 3872164 (protein, UniProt P17706 1-415, looked up) Tyrosine-protein phosphatase …: MPTTIEREFEELDTQRRWQPLYLEIRNESHDYPHRVAKFPENRNRNRYRDVSPYDHSRVKLQNAENDYINASLVDIEEAQRSYILTQGPLPNTCCHFWLMVWQQKTKAVVMLNRIVEKESVKCAQYWPTDDQEMLFKETGFSVKLLSEDVKSYYTVHLLQLENINSGETRTISHFHYTTWPDFGVPESPASFLNFLFKVRESGSLNPDHGPAVIHCSAGIGRSGTFSLVDTCLVLMEKGDDINIKQVLLNMRKYRMGLIQTPDQLRFSYMAIIEGAKCIKGDSSIQKRWKELSKEDLSPAFDHSPNKIMTEKYNGNRIGLEEEKLTGDRCTGLSSKMQDTMEENSESALRKRIREDRKATTAQKVQQMKQRLNENERKRKRWLYWQPILTKMGFMSVILVGAFVGWTLFFQQNAL | – | – | – | 70,574 |

— US7063946B2, “Methods, reagents, kits and apparatus for protein function analysis” (Meso Scale Technologies, LLC., priority 2001, dated 2006)
